Experimental findings from patent publication US20250084155A1 (University of Texas, published 2025) are described below.

In general, Kd refers to a measure of binding affinity in units of concentration. By koff is commonly meant the rate constant with which the complex falls apart. A lower koff goes with a long-lived complex. In general, kon refers to the second-order rate constant of association. Low values mean slower complex formation, high ones faster complex formation. As usually defined, the EC50 is the concentration at which the effect is half-maximal. Read a low EC50 as a more potent agent.

One assay has as its target T1, recombinant human FcγR2A (human, UniProt P12318 36-218).
T1 sequence (looked up): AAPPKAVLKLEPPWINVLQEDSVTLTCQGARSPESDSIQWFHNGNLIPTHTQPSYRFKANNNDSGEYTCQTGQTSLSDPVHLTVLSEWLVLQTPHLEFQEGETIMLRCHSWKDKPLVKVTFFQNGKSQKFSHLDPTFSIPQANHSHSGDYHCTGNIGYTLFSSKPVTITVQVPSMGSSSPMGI
Kind of assay: ELISA on coated recombinant human FcγR2A; monomeric antibody; OD 450 nm. The method, then:
ELISA assays were performed to assess binding to coated FcγR2A by either the monomeric antibody or the antibody in complex with HSP70. Briefly, the assay was performed by coating plates with recombinant human FcγR2A overnight at 0.3 μg/mL. Plates were then washed three times with 300 μL of 1×PBST, and then blocked using 150 µL of SuperBlock per well for 1 hr. Washing was repeated as before, then the dilution series of any of the antibody variants (referred to as “monomeric antibody”) or any of the or antibody immuno-complexes (hereafter referred to as “77A ICX”) were added. To make each dilution series, the following was performed: HSP70 was held constant, and first prepared at a 2× concentration of 200 nM. Antibody was first prepared at 600 nM (2× starting concentration) for the first well, and then serially diluted in three-fold increments using 1× PBST. For use in the assay as monomeric antibody, 80 μL of each 2× antibody dilution was added to 80 μL of 1×PBST and mixed well by pipette to make a 1× dilution series, with the highest concentration being 300 nM. To form the 77A ICX, 80 μL of each 2× antibody dilution was added to 80 μL of 2× HSP70 and mixed well by pipette. […] Plates were then read on a plate reader at 450 and 540 nm wavelengths.

Assay [1] addresses T2, human HSP70 made in Sf9 insect cells (human, UniProt P0DMV8 1-641, limits assumed).
T2 construct: also called HSP70 made in eukaryotic insect Sf9 cells
The assay is described as follows: Octet (BLI). (In general: In BLI a coated tip is dipped into the sample, and binding shifts an interference pattern.)

The target of another assay is murine HSP70 (murine, UniProt P17879 1-642). Kind of assay: Octet (BLI).
Assay [2] addresses human HSP70 made in E. coli (human, UniProt P0DMV8 1-641, limits assumed). The assay is described as follows: Octet (BLI).
In assay [3] the target is T3, ATP-HSP70 (ATP-enriched HSP70, expressed in SF9 cells) (human, UniProt P0DMV8 1-641, limits assumed). Kind of assay: BLI, 77A on sensor, ATP-HSP70 at 150 (µM). On the procedure:
(§1) HSP70 was expressed in SF9 cells. Affinity chromatography using resins selective for ADP or ATP-binding proteins were used to enrich bulk preparations of the correspondingly bound HSP70 recombinant protein. Protein concentrations, determined after elution, were measured so that equal concentrations could be used in subsequent assays. For BLI-based assays, antibodies and reagents were diluted out onto microwell plates and loaded into the instrument. Antibodies being tested were immobilized onto dip-and-read sensors and then observed for kinetics during binding to ATP or ADP-enriched HSP70. For ELISA, the relevant enriched HSP70 proteins were directly coated onto ELISA plate wells overnight. Test antibodies were then serially diluted across the plate wells, and detected using an appropriate secondary antibody-HRP conjugate. The plates were developed using a TMB substrate, and the O.D. stabilized using an acid stop solution.

In assay [4] the target is T3, ATP-HSP70 (ATP-enriched HSP70, …). The assay is described as follows: ELISA, HSP70 coated. On the procedure:
as §1
(§2) ELISA data, shown in FIG. 18, depicted the same trend, in which 77A had higher maximal absorbance with the ADP-enriched HSP70 than the ATP-enriched HSP70.
For orientation: In an ELISA, binding on a coated surface is turned into a signal by an enzyme label.

In assay [5] the target is T4, ADP-HSP70 (ADP-enriched HSP70, expressed in SF9 cells) (human, UniProt P0DMV8 1-641, limits assumed). Kind of assay: ELISA, HSP70 coated. The method, then:
as §1, §2

Assay [6] addresses T5, HSP70 (human HSP70; the antigen of the binning, humanization and variant binding assays) (human, UniProt P0DMV8 1-641, limits assumed).
T5 construct: also called hu HSP70
Kind of assay: BLI, antibody on sensor. The method, then: Humanized variants were characterized for binding using biolayer interferometry (BLI). Chimeric antibodies including the murine 77A antigen binding region and human Fe regions were also tested. Antibodies and reagents were diluted out onto microwell plates and loaded into the instrument. Diluted antibodies were first immobilized onto dip-and-read sensors, and then measurements for baselines were acquired. Subsequently, the sensors were dipped into wells containing the antigen in solution, or buffer alone. The change in number of molecules bound to the sensor was quantified by measurement of the shift in the interference pattern of light during each step of the protocol. Mathematical modeling was performed based on those values and the concentrations of reagents used in the assay and used to calculate kinetics values.

For assay [7], the target named is T4, ADP-HSP70 (ADP-enriched HSP70, …). The assay is described as follows: BLI, 77A on sensor. The method, then:
as §1

For assay [8] the target is unchanged. Kind of assay: BLI, 77A on sensor, ADP-HSP70 at 150 (µM). The method, then: as §1
Assay [9] shares this target. Kind of assay: BLI, 77A on sensor, ADP-HSP70 at 75 (µM). On the procedure:
as §1

Another assay has as its target T6, 504 (N-terminal GFP fusion; GFP is not in the letters).
T6 construct: not shown: N-terminal GFP fusion partner and any linker
Kind of assay: immunoprecipitation with 77A from extracts of HSP70 KO 293T cells, Western blot with anti-GFP [panel B]. In general terms: A western blot detects proteins with antibodies after separation by electrophoresis.

Assay [10] addresses T3, ATP-HSP70 (ATP-enriched HSP70, …). Kind of assay: BLI, 77A on sensor, ATP-HSP70 at 300 (µM). On the procedure: as §1
The target of assay [11] is T4, ADP-HSP70 (ADP-enriched HSP70, …). Kind of assay: BLI, 77A on sensor, ADP-HSP70 at 300 (µM). On the procedure:
as §1

Assay [12] shares this target. The assay is described as follows: BLI, 77A on sensor, ADP-HSP70 at 37.5 (µM). On the procedure: as §1
The target in assay [13] is T3, ATP-HSP70 (ATP-enriched HSP70, …). Kind of assay: BLI, 77A on sensor, ATP-HSP70 at 75 (µM). On the procedure:
as §1

T4 sequence (P0DMV8 whole entry): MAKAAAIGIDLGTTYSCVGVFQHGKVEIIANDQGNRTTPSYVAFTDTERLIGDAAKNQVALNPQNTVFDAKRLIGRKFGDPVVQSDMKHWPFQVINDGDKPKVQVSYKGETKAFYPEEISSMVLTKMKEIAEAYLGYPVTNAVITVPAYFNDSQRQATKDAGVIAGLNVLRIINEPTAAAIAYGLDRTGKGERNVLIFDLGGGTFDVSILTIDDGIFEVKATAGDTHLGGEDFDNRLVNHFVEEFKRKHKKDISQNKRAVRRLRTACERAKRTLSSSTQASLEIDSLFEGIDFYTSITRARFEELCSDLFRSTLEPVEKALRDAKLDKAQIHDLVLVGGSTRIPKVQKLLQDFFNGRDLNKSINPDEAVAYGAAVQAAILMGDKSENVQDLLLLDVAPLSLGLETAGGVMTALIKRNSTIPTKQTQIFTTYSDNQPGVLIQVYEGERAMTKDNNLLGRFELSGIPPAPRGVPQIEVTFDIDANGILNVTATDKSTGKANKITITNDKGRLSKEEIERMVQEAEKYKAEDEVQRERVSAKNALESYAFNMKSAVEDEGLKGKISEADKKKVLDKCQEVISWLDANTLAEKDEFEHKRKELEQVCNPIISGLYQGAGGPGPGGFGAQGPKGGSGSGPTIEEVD
T3 sequence (P0DMV8 whole entry): as above
T5 sequence (P0DMV8 whole entry, change not shown): as the sequence (P0DMV8 whole entry) above
T2 sequence (P0DMV8 whole entry): as above
Chain of human HSP70 made in E. coli (P0DMV8 whole entry): as above
Chain of murine HSP70 (P17879 other isoform, or with tags, fused parts or gaps): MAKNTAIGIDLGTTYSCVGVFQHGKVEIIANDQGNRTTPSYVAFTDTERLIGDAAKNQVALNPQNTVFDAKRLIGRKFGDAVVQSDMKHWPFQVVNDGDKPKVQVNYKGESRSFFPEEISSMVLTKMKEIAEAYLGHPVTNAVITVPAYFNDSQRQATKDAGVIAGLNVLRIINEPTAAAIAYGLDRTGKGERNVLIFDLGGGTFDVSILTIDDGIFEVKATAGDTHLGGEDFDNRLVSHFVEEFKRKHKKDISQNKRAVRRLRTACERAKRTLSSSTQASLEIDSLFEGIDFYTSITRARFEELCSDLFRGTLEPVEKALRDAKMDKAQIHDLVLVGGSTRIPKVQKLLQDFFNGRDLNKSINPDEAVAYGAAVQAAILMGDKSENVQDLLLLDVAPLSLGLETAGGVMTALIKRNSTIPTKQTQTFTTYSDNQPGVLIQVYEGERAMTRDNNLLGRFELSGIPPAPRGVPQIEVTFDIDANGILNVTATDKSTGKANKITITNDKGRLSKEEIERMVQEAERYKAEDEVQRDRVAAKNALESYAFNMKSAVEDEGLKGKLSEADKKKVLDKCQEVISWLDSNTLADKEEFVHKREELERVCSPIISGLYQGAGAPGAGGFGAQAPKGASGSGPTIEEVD

B1: h77A-1-G1m3-GAALIE (antibody, human IgG1, kappa)
heavy: QIQLVQSGAEVKKPGASVKVSCKASGYTFTNYGMNWVRQAPGQGLEWMGWINTYTGEPTYADDFKGRFTFTTDTSTSTAYMELRSLRSDDTAVYFCARYDHAMDYWGQGTLVTVSSASTKGPSVFPLAPSSKSTSGGTAALGCLVKDYFPEPVTVSWNSGALTSGVHTFPAVLQSSGLYSLSSVVTVPSSSLGTQTYICNVNHKPSNTKVDKRVEPKSCDKTHTCPPCPAPELLAGPSVFLFPPKPKDTLMISRTPEVTCVVVDVSHEDPEVKFNWYVDGVEVHNAKTKPREEQYNSTYRVVSVLTVLHQDWLNGKEYKCKVSNKALPLPEEKTISKAKGQPREPQVYTLPPSREEMTKNQVSLTCLVKGFYPSDIAVEWESNGQPENNYKTTPPVLDSDGSFFLYSKLTVDKSRWQQGNVFSCSVMHEALHNHYTQKSLSLSPGK
light: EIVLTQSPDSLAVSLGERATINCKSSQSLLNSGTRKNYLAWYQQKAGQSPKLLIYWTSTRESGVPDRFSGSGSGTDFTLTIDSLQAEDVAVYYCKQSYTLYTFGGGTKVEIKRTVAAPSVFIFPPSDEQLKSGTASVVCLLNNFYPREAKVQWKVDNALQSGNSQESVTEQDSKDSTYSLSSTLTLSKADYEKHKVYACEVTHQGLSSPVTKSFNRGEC
notes: IgG1 G236A/A330L/I332E (EU) Fc variant; also called 77A^GAALIE; copies: 2 + 2
Regarding B1, the binding result with recombinant human FcγR2A is listed as “binds”.

B2: 77A antibody (clone 77A, murine anti-HSP70 monoclonal antibody) (antibody, V domains shown)
VH: QIQLVQSGPELKKPGETVKISCKASGYTFTNYGMNWVKQAPGKGLKWMGWINTYTGEPTYADDFKGRFAFSLETSATTAYLQINNLKNEDTATYFCARYDHAMDYWGQGTSVTVSS
VL: DIVMSQSPSSLAVSAGEKVTMSCKSSQSLLNSGTRKNYLAWYQQKPGQSPKLLIYWTSTRESGVPDRFTGSGSGTDFTLTINSVQAEDLAVYYCKQSYTLYTFGGGTKLEIK
notes: murine hybridoma antibody; its isotype control is IgG2B; also called mAb 77A
As for B2, the Kd in assay [1] was below 1 pM; in the assay with murine HSP70, 988 nM; in assay [2], 0.85 nM; in [3], 20.2 nM; in assay [6], 1.2 nM; in assay [8] it was 5.42 nM. For the same molecule, the Kd in [9] worked out at 5.42 nM; in assay [10] it was 20.2 nM; in [11] it was 5.42 nM; in assay [12], 5.42 nM; in assay [13], 20.2 nM. The koff in assay [3] came out at 0.00038 s⁻¹; in [6], 8.08e-05 s⁻¹; in assay [8], 0.000292 s⁻¹; in assay [9], 0.000292 s⁻¹; in assay [10], 0.00038 s⁻¹; in assay [11], 0.000292 s⁻¹. The figures for the koff in assay [12] and in [13] were 0.000292 s⁻¹ and 0.00038 s⁻¹, respectively. Moreover, the on-rate constant (kon) in [3] is 18800 M⁻¹ s⁻¹; in assay [6] it was 67400 M⁻¹ s⁻¹; in [8], 53800 M⁻¹ s⁻¹; in [9] it was 53800 M⁻¹ s⁻¹; in assay [10], 18800 M⁻¹ s⁻¹; in assay [11], 53800 M⁻¹ s⁻¹. Further, the kon in [12] was 53800 M⁻¹ s⁻¹; in assay [13], 18800 M⁻¹ s⁻¹. Moreover, the 50% effective concentration (EC50) worked out at 1.77 nM in assay [4] and 0.737 nM in assay [5]. Also, the “fold greater affinity (KD) than ATP-enriched HSP70” value in assay [7] is at least 4 fold. For the same molecule, the binding result in the assay with 504 is “no binding”.
